Experimental data published in paper PMC12749748 (2025).

Target: VHL (Homo sapiens, UniProt P40337)
Experiment: SPR

VHL, sequence (P40337 whole entry): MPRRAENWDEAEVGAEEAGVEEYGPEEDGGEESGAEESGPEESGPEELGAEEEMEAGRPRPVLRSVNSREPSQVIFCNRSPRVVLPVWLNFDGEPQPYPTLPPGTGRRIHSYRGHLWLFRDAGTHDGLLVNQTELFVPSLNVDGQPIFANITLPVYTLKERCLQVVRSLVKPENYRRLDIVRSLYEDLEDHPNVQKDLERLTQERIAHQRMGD

B1: IRE1 (protein)
chain: IFGSTSTVTLPETLLFVSTLDGSLHAVSKRTGSIKWTLKEDPVLQVPTHVEEPAFLPDPNDGSLYTLGSKNNEGLTKLPFTIPELVQASPCRSSDGILYMGKKQDIWYVIDLLTGEKQQTLSSAFADSLCPSTSLLYLGRTEYTITMYDTKTRELRWNATYFDYAASLPEDDVDYKMSHFVSNGDGLVVTVDSESGDVLWIQNYASPVVAFYVWQREGLRKVMHINVAVETLRYLTFMSGEVGRITKWKYPFPKETEAKSKLTPTLYVGKYSTSLYASPSMVHEGVAVVPRGSTLPLLEGPQTDGVTIGDKGECVITPSTDVKFDPGLKSKNKLNYLRNYWLLIGHHETPLSASTKMLERFPNNLPKHRENVIPADSEKKSFEEVINLVDQTSENAPTTVSRDVEEKPAHAPARPEAPVDSMLKDMATIILSTFLLIGWVAFIITYPLSMHQQQQLQHQQFQKELEKIQLLQQQQQQLPFHPPGDTAQDGELLDTSGPYSESSGTSSPSTSPRASNHSLCSGSSASKAGSSPSLEQDDGDEETSVVIVGKISFCPKDVLGHGAEGTIVYRGMFDNRDVAVKRILPECFSFADREVQLLRESDEHPNVIRYFCTEKDRQFQYIAIELCAATLQEYVEQKDFAHLGLEPITLLQQTTSGLAHLHSLNIVHRDLKPHNILISMPNAHGKIKAMISDFGLCKKLAVGRHSFSRRSGVPGTEGWIAPEMLSEDCKENPTYTVDIFSAGCVFYYVISEGSHPFGKSLQRQANILLGACSLDCLHPEKHEDVIARELIEKMIAMDPQKRPSAKHVLKHPFFWSLEKQLQFFQDVSDRIEKESLDGPIVKQLERGGRAVVKMDWRENITVPLQTDLRKFRTYKGGSVRDLLRAMRNKKHHYRELPAEVRETLGSLPDDFVCYFTSRFPHLLAHTYRAMELCSHERLFQPYYFHEPPEPQPPVTPDAL
  Kd: > 10 µM
